Data reported in patent publication US20260015399A1 (Boehringer Ingelheim, published 2026).
*1 amine or outer side, *2 acyl side, *3 side chain or, on linkers, in order; H or OH if unused. Side-chain parts run from the residue outwards. The star is where a group is joined. C18 diacid = O=C(O)CCCCCCCCCCCCCCCCC(=O)*; γGlu = O=C(O)[C@H](CCC(=O)[*:2])N[*:1]; Isovaleryl = CC(C)CC(=O)*; Ahx = NCCCCCC(=O)O

B1: Compound 107 (peptide)
peptide: Isovaleryl-APEK([Ahx-γGlu-C18 diacid])PEEDAEPEETQRYYVSLRHYYNWLTRQRY-NH2
SMILES: CC(C)CC(=O)N[C@@H](C)C(=O)N1CCC[C@H]1C(=O)N[C@@H](CCC(=O)O)C(=O)N[C@@H](CCCCNC(=O)CCCCCNC(=O)CC[C@H](NC(=O)CCCCCCCCCCCCCCCCC(=O)O)C(=O)O)C(=O)N1CCC[C@H]1C(=O)N[C@@H](CCC(=O)O)C(=O)N[C@@H](CCC(=O)O)C(=O)N[C@@H](CC(=O)O)C(=O)N[C@@H](C)C(=O)N[C@@H](CCC(=O)O)C(=O)N1CCC[C@H]1C(=O)N[C@@H](CCC(=O)O)C(=O)N[C@@H](CCC(=O)O)C(=O)N[C@H](C(=O)N[C@@H](CCC(N)=O)C(=O)N[C@@H](CCCNC(=N)N)C(=O)N[C@@H](Cc1ccc(O)cc1)C(=O)N[C@@H](Cc1ccc(O)cc1)C(=O)N[C@H](C(=O)N[C@@H](CO)C(=O)N[C@@H](CC(C)C)C(=O)N[C@@H](CCCNC(=N)N)C(=O)N[C@@H](Cc1c[nH]cn1)C(=O)N[C@@H](Cc1ccc(O)cc1)C(=O)N[C@@H](Cc1ccc(O)cc1)C(=O)N[C@@H](CC(N)=O)C(=O)N[C@@H](Cc1c[nH]c2ccccc12)C(=O)N[C@@H](CC(C)C)C(=O)N[C@H](C(=O)N[C@@H](CCCNC(=N)N)C(=O)N[C@@H](CCC(N)=O)C(=O)N[C@@H](CCCNC(=N)N)C(=O)N[C@@H](Cc1ccc(O)cc1)C(N)=O)[C@@H](C)O)C(C)C)[C@@H](C)O
B2: Compound 111 (peptide)
peptide: Isovaleryl-APAK([Ahx-γGlu-C18 diacid])PEAAAEPEEIQRYYVSLRHYYNWLTRQRY-NH2
SMILES: CC[C@H](C)[C@H](NC(=O)[C@H](CCC(=O)O)NC(=O)[C@H](CCC(=O)O)NC(=O)[C@@H]1CCCN1C(=O)[C@H](CCC(=O)O)NC(=O)[C@H](C)NC(=O)[C@H](C)NC(=O)[C@H](C)NC(=O)[C@H](CCC(=O)O)NC(=O)[C@@H]1CCCN1C(=O)[C@H](CCCCNC(=O)CCCCCNC(=O)CC[C@H](NC(=O)CCCCCCCCCCCCCCCCC(=O)O)C(=O)O)NC(=O)[C@H](C)NC(=O)[C@@H]1CCCN1C(=O)[C@H](C)NC(=O)CC(C)C)C(=O)N[C@@H](CCC(N)=O)C(=O)N[C@@H](CCCNC(=N)N)C(=O)N[C@@H](Cc1ccc(O)cc1)C(=O)N[C@@H](Cc1ccc(O)cc1)C(=O)N[C@H](C(=O)N[C@@H](CO)C(=O)N[C@@H](CC(C)C)C(=O)N[C@@H](CCCNC(=N)N)C(=O)N[C@@H](Cc1c[nH]cn1)C(=O)N[C@@H](Cc1ccc(O)cc1)C(=O)N[C@@H](Cc1ccc(O)cc1)C(=O)N[C@@H](CC(N)=O)C(=O)N[C@@H](Cc1c[nH]c2ccccc12)C(=O)N[C@@H](CC(C)C)C(=O)N[C@H](C(=O)N[C@@H](CCCNC(=N)N)C(=O)N[C@@H](CCC(N)=O)C(=O)N[C@@H](CCCNC(=N)N)C(=O)N[C@@H](Cc1ccc(O)cc1)C(N)=O)[C@@H](C)O)C(C)C
B3: Compound 109 (peptide)
peptide: Isovaleryl-APEK([Ahx-γGlu-C18 diacid])PEEDLTPEELQRYYVSLRHYYNWLTRQRY-NH2
SMILES: CC(C)CC(=O)N[C@@H](C)C(=O)N1CCC[C@H]1C(=O)N[C@@H](CCC(=O)O)C(=O)N[C@@H](CCCCNC(=O)CCCCCNC(=O)CC[C@H](NC(=O)CCCCCCCCCCCCCCCCC(=O)O)C(=O)O)C(=O)N1CCC[C@H]1C(=O)N[C@@H](CCC(=O)O)C(=O)N[C@@H](CCC(=O)O)C(=O)N[C@@H](CC(=O)O)C(=O)N[C@@H](CC(C)C)C(=O)N[C@H](C(=O)N1CCC[C@H]1C(=O)N[C@@H](CCC(=O)O)C(=O)N[C@@H](CCC(=O)O)C(=O)N[C@@H](CC(C)C)C(=O)N[C@@H](CCC(N)=O)C(=O)N[C@@H](CCCNC(=N)N)C(=O)N[C@@H](Cc1ccc(O)cc1)C(=O)N[C@@H](Cc1ccc(O)cc1)C(=O)N[C@H](C(=O)N[C@@H](CO)C(=O)N[C@@H](CC(C)C)C(=O)N[C@@H](CCCNC(=N)N)C(=O)N[C@@H](Cc1c[nH]cn1)C(=O)N[C@@H](Cc1ccc(O)cc1)C(=O)N[C@@H](Cc1ccc(O)cc1)C(=O)N[C@@H](CC(N)=O)C(=O)N[C@@H](Cc1c[nH]c2ccccc12)C(=O)N[C@@H](CC(C)C)C(=O)N[C@H](C(=O)N[C@@H](CCCNC(=N)N)C(=O)N[C@@H](CCC(N)=O)C(=O)N[C@@H](CCCNC(=N)N)C(=O)N[C@@H](Cc1ccc(O)cc1)C(N)=O)[C@@H](C)O)C(C)C)[C@@H](C)O
B4: Compound 108 (peptide)
peptide: Isovaleryl-APEK([Ahx-γGlu-C18 diacid])PEADASEEELQRYYVSLRHYYNWLTRQRY-NH2
SMILES: CC(C)CC(=O)N[C@@H](C)C(=O)N1CCC[C@H]1C(=O)N[C@@H](CCC(=O)O)C(=O)N[C@@H](CCCCNC(=O)CCCCCNC(=O)CC[C@H](NC(=O)CCCCCCCCCCCCCCCCC(=O)O)C(=O)O)C(=O)N1CCC[C@H]1C(=O)N[C@@H](CCC(=O)O)C(=O)N[C@@H](C)C(=O)N[C@@H](CC(=O)O)C(=O)N[C@@H](C)C(=O)N[C@@H](CO)C(=O)N[C@@H](CCC(=O)O)C(=O)N[C@@H](CCC(=O)O)C(=O)N[C@@H](CCC(=O)O)C(=O)N[C@@H](CC(C)C)C(=O)N[C@@H](CCC(N)=O)C(=O)N[C@@H](CCCNC(=N)N)C(=O)N[C@@H](Cc1ccc(O)cc1)C(=O)N[C@@H](Cc1ccc(O)cc1)C(=O)N[C@H](C(=O)N[C@@H](CO)C(=O)N[C@@H](CC(C)C)C(=O)N[C@@H](CCCNC(=N)N)C(=O)N[C@@H](Cc1c[nH]cn1)C(=O)N[C@@H](Cc1ccc(O)cc1)C(=O)N[C@@H](Cc1ccc(O)cc1)C(=O)N[C@@H](CC(N)=O)C(=O)N[C@@H](Cc1c[nH]c2ccccc12)C(=O)N[C@@H](CC(C)C)C(=O)N[C@H](C(=O)N[C@@H](CCCNC(=N)N)C(=O)N[C@@H](CCC(N)=O)C(=O)N[C@@H](CCCNC(=N)N)C(=O)N[C@@H](Cc1ccc(O)cc1)C(N)=O)[C@@H](C)O)C(C)C
B5: Compound 112 (peptide)
peptide: Isovaleryl-APEK([Ahx-γGlu-C18 diacid])PEEDAEPEEIQRYYVSLRHYYNWLTRQRY-NH2
SMILES: CC[C@H](C)[C@H](NC(=O)[C@H](CCC(=O)O)NC(=O)[C@H](CCC(=O)O)NC(=O)[C@@H]1CCCN1C(=O)[C@H](CCC(=O)O)NC(=O)[C@H](C)NC(=O)[C@H](CC(=O)O)NC(=O)[C@H](CCC(=O)O)NC(=O)[C@H](CCC(=O)O)NC(=O)[C@@H]1CCCN1C(=O)[C@H](CCCCNC(=O)CCCCCNC(=O)CC[C@H](NC(=O)CCCCCCCCCCCCCCCCC(=O)O)C(=O)O)NC(=O)[C@H](CCC(=O)O)NC(=O)[C@@H]1CCCN1C(=O)[C@H](C)NC(=O)CC(C)C)C(=O)N[C@@H](CCC(N)=O)C(=O)N[C@@H](CCCNC(=N)N)C(=O)N[C@@H](Cc1ccc(O)cc1)C(=O)N[C@@H](Cc1ccc(O)cc1)C(=O)N[C@H](C(=O)N[C@@H](CO)C(=O)N[C@@H](CC(C)C)C(=O)N[C@@H](CCCNC(=N)N)C(=O)N[C@@H](Cc1c[nH]cn1)C(=O)N[C@@H](Cc1ccc(O)cc1)C(=O)N[C@@H](Cc1ccc(O)cc1)C(=O)N[C@@H](CC(N)=O)C(=O)N[C@@H](Cc1c[nH]c2ccccc12)C(=O)N[C@@H](CC(C)C)C(=O)N[C@H](C(=O)N[C@@H](CCCNC(=N)N)C(=O)N[C@@H](CCC(N)=O)C(=O)N[C@@H](CCCNC(=N)N)C(=O)N[C@@H](Cc1ccc(O)cc1)C(N)=O)[C@@H](C)O)C(C)C
B6: Compound 110 (peptide)
peptide: Isovaleryl-APEK([Ahx-γGlu-C18 diacid])PEEDATPEELQRYYVELRHYYNWLTRQRY-NH2
SMILES: CC(C)CC(=O)N[C@@H](C)C(=O)N1CCC[C@H]1C(=O)N[C@@H](CCC(=O)O)C(=O)N[C@@H](CCCCNC(=O)CCCCCNC(=O)CC[C@H](NC(=O)CCCCCCCCCCCCCCCCC(=O)O)C(=O)O)C(=O)N1CCC[C@H]1C(=O)N[C@@H](CCC(=O)O)C(=O)N[C@@H](CCC(=O)O)C(=O)N[C@@H](CC(=O)O)C(=O)N[C@@H](C)C(=O)N[C@H](C(=O)N1CCC[C@H]1C(=O)N[C@@H](CCC(=O)O)C(=O)N[C@@H](CCC(=O)O)C(=O)N[C@@H](CC(C)C)C(=O)N[C@@H](CCC(N)=O)C(=O)N[C@@H](CCCNC(=N)N)C(=O)N[C@@H](Cc1ccc(O)cc1)C(=O)N[C@@H](Cc1ccc(O)cc1)C(=O)N[C@H](C(=O)N[C@@H](CCC(=O)O)C(=O)N[C@@H](CC(C)C)C(=O)N[C@@H](CCCNC(=N)N)C(=O)N[C@@H](Cc1c[nH]cn1)C(=O)N[C@@H](Cc1ccc(O)cc1)C(=O)N[C@@H](Cc1ccc(O)cc1)C(=O)N[C@@H](CC(N)=O)C(=O)N[C@@H](Cc1c[nH]c2ccccc12)C(=O)N[C@@H](CC(C)C)C(=O)N[C@H](C(=O)N[C@@H](CCCNC(=N)N)C(=O)N[C@@H](CCC(N)=O)C(=O)N[C@@H](CCCNC(=N)N)C(=O)N[C@@H](Cc1ccc(O)cc1)C(N)=O)[C@@H](C)O)C(C)C)[C@@H](C)O

Biological target: T1, human NPY2 receptor (human, UniProt P49146 1-381)
T1 construct: whole, on cells; also called hNPY2-R; hNPY2R
T1 sequence (looked up): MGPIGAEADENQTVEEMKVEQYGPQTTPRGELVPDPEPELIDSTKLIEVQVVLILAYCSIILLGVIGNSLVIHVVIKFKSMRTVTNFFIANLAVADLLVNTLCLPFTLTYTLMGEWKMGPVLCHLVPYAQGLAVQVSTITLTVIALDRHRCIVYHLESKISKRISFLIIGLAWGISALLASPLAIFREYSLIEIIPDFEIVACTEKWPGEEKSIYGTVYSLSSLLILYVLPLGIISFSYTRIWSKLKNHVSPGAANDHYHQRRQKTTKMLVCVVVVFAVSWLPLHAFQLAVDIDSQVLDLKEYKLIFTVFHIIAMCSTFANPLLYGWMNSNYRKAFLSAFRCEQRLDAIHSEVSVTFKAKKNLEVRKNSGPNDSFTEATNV
Assay: RLB: displacement of 125I-PYY(1-36) from hNPY2R membranes

Binder	Ki
B1	5.13 nM
B2	2.14 nM
B3	14 nM
B4	2.77 nM
B5	4.28 nM
B6	6.42 nM
